Laboratory results: the nanobody polyreactivity screen of Harvey et al. (2022)

Experiment: yeast display, Sf9 membrane polyspecificity reagent, FACS + sequencing; frameworks hold sequencing errors
Outline: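 A synthetic nanobody library was expressed on Saccharomyces cerevisiae BJ5465 by galactose induction for 36–48 hours. The library was stained for 1 hour at 4 °C with 10% biotinylated, detergent-solubilized Sf9 membrane reagent and enriched with streptavidin microbeads before FACS. Low and high (top ~1%) gates were set on anti-HA fluorescence for expression and streptavidin fluorescence for reagent binding, and each polyreactivity label reflects the gate of origin.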

Sequence	polyreactivity (PSR sort gate)
QVQLVESGGGLVQAGGSLRLSCAASGRTFRDYVMGWYRPAPGKERELVAAISTRGASTYYADSVKGRFTISRDNAKNTVYLQMNSLKPEDTAVYYCAARSTRRGNEYDYWGQGTQVTVSS	high polyreactivity
QVQLVESGGGLVQAGGSLRLSCAASGSTFTYNTMGWYRQAPGQERELVAAISSGGSTYYADSVKGRFTFSRDNAKNTVSLQMNSLKPEDTAVYYCAARSRYGESPGYYWGQGTQVTVSS	high polyreactivity
QVQLVESGGGLVQAGGSLRLSCAASGSTFRYYAMGWYRQARGKERELVAAITSSGGRTYYADSVKGRFTISRDNAKNTVYLQMNSLKPEDTAVYYCAAYAYYHTGDDYWGQGTQVTVSS	high polyreactivity
QVQLVESGGGLVQAGGSLRLSCAASGSIFGDNAMGWYRQAPGKERELVARISSGGNTYYADSVKGRFTISRDNAKNTVYLQMNSLKPEDTAVYYCAAAIKVSYKKFPYYYWGQGTQVTVSS	high polyreactivity
QVQHVESGGGLVQAGGSLRISCAASGSTFPRYGKGRYRQAPGKERELVAAISSGGGRTYYADSVKGRFTISRDNAKNTVYVQMNSLKPEDTAVYYCNKRPSHWRHYIMDYWGQGTQVTVSS	high polyreactivity
QVQLVESGGGLVQAGGSLRLSCAASGLTFQYYAMGWYRQAPGKDRELVAAISTSGGSTYYADSVKGRFTISRDYAKNTVYLQMNSLKPEDTAVYYCAARRGSQYWGQGTQVTVSS	high polyreactivity
QVQLVESGGGLVQAGGSLRLSCAASGGTLYTYAMGWYRQAPGKEWEFVAAITVSGGRTYYADSVKGRFTISRDNAKNTVYLLMNSLKPEDTAVYYCAARYWSWRSFKVDYWGQGTQVTVSS	high polyreactivity
QVQLVESGGGLVQEGGSLRLSCAASGSTFHSYAMGWYRQAPGKERELVAGINRTGGSTYYADSVKGRFTISRDNAKNTVYLQMNSLKPEDTAVYYCAAVSYYASDYRYDYWGQGTQVTVSS	low polyreactivity
QVQLVESGGGLVQAGGSLRLSCSASGITFWLYDKGWYIQAPGKERELVARITYSGTSTYYADSVKGRFTISRDNAKNTVYLQMNSLEPEDTAVYYCAADLTYHYPRYITYEYWGQGTQVTVSS	low polyreactivity
QVHLVESGGGLVQAGGSLRLSCAASGRTFIYYAMGWYRQAPGKERELVAAISSGGSTDYADSVKGRFTISRDNAKNTVYLQMNSLKPEDTAVYYCSAVVGYITYYGYDYWGQGTQVTVSS	low polyreactivity
QVQLVESGGGLVQAGGSLRLSCAASGRIFGYYAMGWSRQAPGKEWELVAAISSGGRTYYADSVKGRFTISRDNAKNTVYLQMNSLKPEDTAVYYCAARSRVPPAGPRYDYWGQGTQVTVSS	high polyreactivity
QVQLVDSGGGLVQAGGSLRLSCAASGSTFAPYAMGWSRQAPGKERELVAAISWGGGSTYYADSVKGRFTISRDNAKNTVYLQMNSLKPEDTAVYYCAADYAEYSAEWYEDWGQGTQVTVSS	high polyreactivity
QVQLVESGGGLVQAGGSLRLSCAASGSTFVTNAMGWYRQAPGKEREFVAAISNSSGSTYYADSVKGRFTISRDNEKNTVYLQMNSLKPEDTAVYYCNATPDDWLQEDYWGQGTQVTVSS	low polyreactivity
QVQLVESGGGLVQAGGSLRLSCAASGSIFRVYAMGWYRHAPGKERELVATITSSGGFTYADSVKGRFTISRDNAKNTVYLQMNSLKQEDTAVYYCATVRFGQYWVPSGYSWGYTYDYWGQGTQVTVSS	high polyreactivity
QVQLVESGGGLVQAGGSLRLSCAASGLIFWYYAMGRYRQAPGKERELVASISSGGDTTYADSVKGRFTISRDNAKNTVYLQMNSLKPEDTAVYYGAAERYVRVWVAGILHYDYWGQGTQVTVSS	low polyreactivity
QVQLVESGGGLVQAGGSLRLSCAASGSIFGAYAMGWYRQAPGKERELVATITLRDGSTYYADSVKGRFTISRDNAKNTVYLQMNSLKPEDTAVYYCATYYSAINYGWSNTILYDYWGQGTQVTVSS	low polyreactivity
QVQLVESGGCLVQAGGSLRLSCAASGRTFAWYAMGWYRQAPGKERELVAAISSGGSTYYADSVKGRFTISRDNAKNTVYLQMDSLKPEDTAVYYCAAEWHYIYAYDYWGQGTQVTVSS	low polyreactivity
